Tests used:
Assay in all cases: yeast two-hybrid, mating, His3/LacZ reporters
[1] = biological target: T1, Bait polypeptide of SEQ ID No 107, NS5B (100%), HCV strain H77 nt 7838-8743 (hepatitis C virus strain H77, UniProt P26664 2500-2799)
T1 construct: also called Bait NS5B (100%)

[2] = biological target: T2, Bait polypeptide of SEQ ID No 112, NS5B (100%), HCV strain H77 nt 8996-9220 (hepatitis C virus strain H77, UniProt Q03463 2886-2958)
T2 construct: also called Bait NS5B (100%)

[3] = biological target: T3, SID polypeptide of SEQ ID No 30, NS4B (100%), HCV strain H77 nt 6029-6194 (hepatitis C virus strain H77, UniProt P26664 1897-1950)
T3 construct: Intersection of yeast two-hybrid prey fragments; also called SID NS4B (100%)
T3 sequence: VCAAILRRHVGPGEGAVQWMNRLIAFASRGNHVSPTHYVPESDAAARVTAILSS

[4] = biological target: T4, Bait polypeptide of SEQ ID No 111, NS5B (100%), HCV strain H77 nt 8708-8978 (hepatitis C virus strain H77, UniProt P27958 2790-2878)
T4 construct: also called Bait NS5B (100%)

[5] = biological target: T5, Bait polypeptide of SEQ ID No 84, NS3 (100%), HCV strain H77 nt 3767-4244 (hepatitis C virus strain H77, UniProt P27958 1143-1300)
T5 construct: also called Bait NS3 (100%)
T5 chain: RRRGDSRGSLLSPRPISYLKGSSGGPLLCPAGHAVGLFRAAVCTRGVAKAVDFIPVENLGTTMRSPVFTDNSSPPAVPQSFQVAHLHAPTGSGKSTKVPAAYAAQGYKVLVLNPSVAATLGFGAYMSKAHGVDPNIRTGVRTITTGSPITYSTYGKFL

[6] = biological target: T6, SID polypeptide of SEQ ID No 31, NS5B (100%), HCV strain H77 nt 8354-8665 (hepatitis C virus strain H77, UniProt P26664 2672-2773)
T6 construct: Intersection of yeast two-hybrid prey fragments; also called SID NS5B (100%)

[7] = biological target: T7, Bait polypeptide of SEQ ID No 80, E1 (4%)/E2 (95%), HCV strain H77 nt 1478-1756 (hepatitis C virus strain H77, UniProt P27958 380-470)
T7 construct: also called Bait E1 (4%)/E2 (95%)

[8] = biological target: T8, Bait polypeptide of SEQ ID No 79, E1 (100%), HCV strain H77 nt 995-1342 (hepatitis C virus strain H77, UniProt P27958 219-332)
T8 construct: also called Bait E1 (100%)
T8 chain: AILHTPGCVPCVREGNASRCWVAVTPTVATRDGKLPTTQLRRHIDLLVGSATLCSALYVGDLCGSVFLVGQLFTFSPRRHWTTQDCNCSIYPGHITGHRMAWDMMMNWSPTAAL

[9] = biological target: T9, Bait polypeptide of SEQ ID No 109, NS5B (100%), HCV strain H77 nt 7976-8759 (hepatitis C virus strain H77, UniProt P26664 2546-2805)
T9 construct: also called Bait NS5B (100%)

[10] = biological target: T10, SID polypeptide of SEQ ID No 8, NS4A (59%)/NS4B (40%), HCV strain H77 nt 5375-5542 (hepatitis C virus strain H77, UniProt P27958 1679-1732)
T10 construct: Intersection of yeast two-hybrid prey fragments; also called SID NS4A (59%)/NS4B (40%)
T10 sequence: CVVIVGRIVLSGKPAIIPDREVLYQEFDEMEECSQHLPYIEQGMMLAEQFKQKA

[11] = biological target: T11, SID polypeptide of SEQ ID No 33, NS3 (100%), HCV strain H77 nt 4715-4901 (hepatitis C virus strain H77, UniProt P27958 1459-1519)
T11 construct: Intersection of yeast two-hybrid prey fragments; also called SID NS3 (100%)
T11 sequence: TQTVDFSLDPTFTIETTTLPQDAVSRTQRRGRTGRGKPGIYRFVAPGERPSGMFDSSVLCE

[12] = biological target: T12, SID polypeptide of SEQ ID No 29, NS3 (100%), HCV strain H77 nt 4451-4790 (hepatitis C virus strain H77, UniProt P27958 1371-1482)
T12 construct: Intersection of yeast two-hybrid prey fragments; also called SID NS3 (100%)
T12 sequence: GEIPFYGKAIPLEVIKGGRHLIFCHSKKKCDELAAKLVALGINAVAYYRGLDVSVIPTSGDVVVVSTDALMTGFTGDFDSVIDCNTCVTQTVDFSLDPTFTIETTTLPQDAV

B1: SID polypeptide of SEQ ID No 32, NS5B (100%), HCV strain H77 nt 7769-8011 (other)
chain: not shown
notes: Intersection of yeast two-hybrid prey fragments; also called SID NS5B (100%)
B1: binds [1].

B2: SID polypeptide of SEQ ID No 37, NS4B (57%)/NS5A(41%), HCV strain H77 nt 6194-6303 (other)
chain: TVTQLLRRLHQWISSECTTPCSGSWLRDIWDWICE
notes: Intersection of yeast two-hybrid prey fragments; also called SID NS4B (57%)/NS5A(41%)
B2: binds [2].

B3: Bait polypeptide of SEQ ID No 105, NS5A (100%), HCV strain H77 nt 7274-7549 (other)
chain: HGCPLPPPRSPPVPPPRKKRTVVLTESTLSTALAELATKSFGSSSTSGITGDNTTTSSEPAPSGCPPDSDVESYSSMPPLEGEPGDPDLS
notes: also called Bait NS5A (100%)
B3: binds [3].

B4: SID polypeptide of SEQ ID No 36, E2 (100%), HCV strain H77 nt 1751-1865 (other)
chain: PISYANGSGLDERPYCWHYPPRPCGIVPAKSVCGPVY
notes: Intersection of yeast two-hybrid prey fragments; also called SID E2 (100%)
B4: binds [4].

B5: SID polypeptide of SEQ ID No 9, NS3 (100%), HCV strain H77 nt 4676-4801 (other)
chain: GDFDSVIDCNTCVTQTVDFSLDPTFTIETTTLPQDAVSRT
notes: Intersection of yeast two-hybrid prey fragments; also called SID NS3 (100%)
B5: binds [5].

B6: Bait polypeptide of SEQ ID No 106, NS5B (100%), HCV strain H77 nt 7613-8027 (other)
chain: not shown
notes: also called Bait NS5B (100%)
B6: binds [6].

B7: SID polypeptide of SEQ ID No 5, NS3 (100%), HCV strain H77 nt 4787-5242 (other)
chain: SRTQRRGRTGRGKPGIYRFVAPGERPSGMFDSSVLCECYDAGCAWYELTPAETTVRLRAYMNTPGLPVCQDHLEFWEGVFTGLTHIDAHFLSQTKQSGENFPYLVAYQATVCARAQAPPPSWDQMWKCLIRLKPTLHGPTPLLYRLGAVQ
notes: as for B5
B7: binds [7].

B8: SID polypeptide of SEQ ID No 4, E2 (100%), HCV strain H77 nt 1871-1987 (other)
chain: PSPVVVGTTDRSGAPTYSWGANDTDVFVLNNTRPPLG
notes: as for B4
B8: binds [8].

B9: SID polypeptide of SEQ ID No 34, NS5B (100%), HCV strain H77 nt 7775-8011 (other)
chain: not shown
notes: as for B1
B9: binds [9].

B10: Bait polypeptide of SEQ ID No 83, NS2 (12%)/NS3 (87%), HCV strain H77 nt 3312-4150 (other)
chain: AACGDIINGLPVSARRGQEILLGPADGMVSKGWRLLAPITAYAQQTRGLLGCIITSLTGRDKNQVEGEVQIVSTATQTFLATCINGVCWTVYHGAGTRTIASPKGPVIQMYTNVDQDLVGWPAPQGSRSLTPCTCGSSDLYLVTRHADVIPVRRRGDSRGSLLSPRPISYLKGSSGGPLLCPAGHAVGLFRAAVCTRGVAKAVDFIPVENLGTTMRSPVFTDNSSPPAVPQSFQVAHLHAPTGSGKSTKVPAAYAAQGYKVLVLNPSVAATLGFGAYM
notes: also called Bait NS2 (12%)/NS3 (87%)
B10: binds [10].

B11: Bait polypeptide of SEQ ID No 108, NS5B (100%), HCV strain H77 nt 7856-8458 (other)
chain: not shown
notes: also called Bait NS5B (100%)
B11: binds [11].

B12: Bait polypeptide of SEQ ID No 104, NS5A (100%), HCV strain H77 nt 7019-7249 (other)
chain: IEANLLWRQEMGGNITRVESENKVVILDSFDPLVAEEDEREVSVPAEILRKSRRFARALPVWARPDYNPPLVETW
notes: also called Bait NS5A (100%)
B12: binds [12].
